Drawing on the supplement of paper PMC10567573, this text covers protein stability index for 94 variants.

B1: LOXL2 (parent)
chain: RLLRFSSQIHNNGQSDFRPKNGRH
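Also: lentivirally expressed fusions sorted by FACS into six bins by GFP to DsRed ratio, PSI derived from sequencing read proportions per bin multiplied by bin number.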

In the data set the parent is B1. The experiment in a line: protein stability index of a GFP-peptide fusion (GPS, HEK-293T) (PSI 1-6); higher = more stable. The note with it: c terminus: a fixed tail appended.
Consider RLLRFSSQIHNNGQSDFRPENGRH [K20E], for which the protein stability index turned out to be 3.45.

Regarding RLLRFSSQIHNNGQSDFRPSNGRH [K20S], the protein stability index worked out at 2.78.

With RLLRFSSQIHNNGQSDFRPWNGRH [K20W], the protein stability index was found to be 2.08.

Turning to RLLRFSSQIHNNGQSDFRPGNGRH [K20G], the protein stability index turned out to be 2.79.

With RLLRFSSQIHNNGQSDFRPCNGRH [K20C], the protein stability index came to 2.35.

As to RLLRFSSQIHNNGQSDFRPLNGRH [K20L], the protein stability index came out at 1.89.

In the case of RLLRFSSQIHNNGQSDFRPFNGRH [K20F], the protein stability index was 2.22.

On to RLLRFSSQIHNNGQSDFRPHNGRH [K20H], for which the protein stability index came out at 2.6.

Consider RLLRFSSQIHNNGQSDFRPDNGRH [K20D], for which the protein stability index came out at 2.91.

Consider RLLRFSSQIHNNGQSDFRPANGRH [K20A], for which the protein stability index worked out at 2.49.

As for RLLRFSSQIHNNGQSDFRPYNGRH [K20Y], the protein stability index came out at 2.23.

RLLRFSSQIHNNGQSDFRPRNGRH [K20R]: the protein stability index was found to be 2.78.

Take RLLRFSSQIHNNGQSDFRPQNGRH [K20Q]: the protein stability index came out at 2.54.

On to RLLRFSSQIHNNGQSDFRPVNGRH [K20V], for which the protein stability index turned out to be 2.35.

With RLLRFSSQIHNNGQSDFRPPNGRH [K20P], the protein stability index was 2.47.

For RLLRFSSQIHNNGQSDFRPKHGRH [N21H], the protein stability index was found to be 2.23.

Regarding RLLRFSSQIHNNGQSDFRPKKGRH [N21K], the protein stability index was determined as 2.85.

RLLRFSSQIHNNGQSDFRPKAGRH [N21A]: the protein stability index amounted to 2.82.

Take RLLRFSSQIHNNGQSDFRPKIGRH [N21I]: the protein stability index was found to be 1.79.

Turning to RLLRFSSQIHNNGQSDFRPKQGRH [N21Q], the protein stability index amounted to 2.71.

In the case of RLLRFSSQIHNNGQSDFRPKCGRH [N21C], the protein stability index is 2.13.

In the case of RLLRFSSQIHNNGQSDFRPKYGRH [N21Y], the protein stability index came out at 1.77.

As to RLLRFSSQIHNNGQSDFRPKRGRH [N21R], the protein stability index came out at 2.62.

As for RLLRFSSQIHNNGQSDFRPKGGRH [N21G], the protein stability index was 2.49.

In the case of RLLRFSSQIHNNGQSDFRPKEGRH [N21E], the protein stability index turned out to be 2.97.

With RLLRFSSQIHNNGQSDFRPKSGRH [N21S], the protein stability index is 2.33.

In the case of RLLRFSSQIHNNGQSDFRPKFGRH [N21F], the protein stability index came out at 2.04.

As to RLLRFSSQIHNNGQSDFRPKWGRH [N21W], the protein stability index was 1.52.

RLLRFSSQIHNNGQSDFRPKVGRH [N21V]: the protein stability index came to 2.41.

Regarding RLLRFSSQIHNNGQSDFRPKTGRH [N21T], the protein stability index is 2.37.

RLLRFSSQIHNNGQSDFRPKLGRH [N21L]: the protein stability index is 2.17.

As to RLLRFSSQIHNNGQSDFRPKPGRH [N21P], the protein stability index came out at 2.4.

Take RLLRFSSQIHNNGQSDFRPKMGRH [N21M]: the protein stability index came out at 2.27.

Consider RLLRFSSQIHNNGQSDFRPKDGRH [N21D], for which the protein stability index came out at 2.93.

Take RLLRFSSQIHNNGQSDFRPKNLRH [G22L]: the protein stability index came out at 2.49.

For RLLRFSSQIHNNGQSDFRPKNCRH [G22C], the protein stability index was 2.4.

As to RLLRFSSQIHNNGQSDFRPKNIRH [G22I], the protein stability index turned out to be 2.19.

For the variant RLLRFSSQIHNNGQSDFRPKNYRH [G22Y], the protein stability index came to 2.71.

Take RLLRFSSQIHNNGQSDFRPKNWRH [G22W]: the protein stability index was determined as 2.22.

On to RLLRFSSQIHNNGQSDFRPKNDRH [G22D], for which the protein stability index was 2.94.

In the case of RLLRFSSQIHNNGQSDFRPKNARH [G22A], the protein stability index was 2.57.

For the variant RLLRFSSQIHNNGQSDFRPKNFRH [G22F], the protein stability index was 2.11.

As to RLLRFSSQIHNNGQSDFRPKNERH [G22E], the protein stability index came out at 2.4.

As to RLLRFSSQIHNNGQSDFRPKNQRH [G22Q], the protein stability index is 2.89.

In the case of RLLRFSSQIHNNGQSDFRPKNVRH [G22V], the protein stability index is 2.01.

With RLLRFSSQIHNNGQSDFRPKNSRH [G22S], the protein stability index came out at 3.02.

RLLRFSSQIHNNGQSDFRPKNMRH [G22M]: the protein stability index turned out to be 2.27.

With RLLRFSSQIHNNGQSDFRPKNPRH [G22P], the protein stability index turned out to be 2.7.

For RLLRFSSQIHNNGQSDFRPKNRRH [G22R], the protein stability index amounted to 2.47.

As for RLLRFSSQIHNNGQSDFRPKNNRH [G22N], the protein stability index was found to be 2.58.

As for RLLRFSSQIHNNGQSDFRPKNKRH [G22K], the protein stability index is 2.62.

Regarding RLLRFSSQIHNNGQSDFRPKNTRH [G22T], the protein stability index stood at 2.39.

On to RLLRFSSQIHNNGQSDFRPKNHRH [G22H], for which the protein stability index was 2.4.

As to RLLRFSSQIHNNGQSDFRPKNGRD [H24D], the protein stability index is 2.86.

On to RLLRFSSQIHNNGQSDFRPKNGRW [H24W], for which the protein stability index is 2.83.

As for RLLRFSSQIHNNGQSDFRPKNGRC [H24C], the protein stability index is 2.14.

For the variant RLLRFSSQIHNNGQSDFRPKNGRF [H24F], the protein stability index was found to be 2.38.

As to RLLRFSSQIHNNGQSDFRPKNGRK [H24K], the protein stability index worked out at 3.5.

As to RLLRFSSQIHNNGQSDFRPKNGRM [H24M], the protein stability index amounted to 2.68.

Consider RLLRFSSQIHNNGQSDFRPKNGRQ [H24Q], for which the protein stability index came out at 3.16.

As to RLLRFSSQIHNNGQSDFRPKNGRN [H24N], the protein stability index came out at 2.89.

For the variant RLLRFSSQIHNNGQSDFRPKNGRI [H24I], the protein stability index is 2.54.

For the variant RLLRFSSQIHNNGQSDFRPKNGRL [H24L], the protein stability index came to 2.47.

As to RLLRFSSQIHNNGQSDFRPKNGRY [H24Y], the protein stability index was found to be 2.67.

As for RLLRFSSQIHNNGQSDFRPKNGRA [H24A], the protein stability index was 2.88.

Consider RLLRFSSQIHNNGQSDFRPKNGRT [H24T], for which the protein stability index was 2.76.

For RLLRFSSQIHNNGQSDFRPKNGRS [H24S], the protein stability index was determined as 3.

On to RLLRFSSQIHNNGQSDFRPKNGRG [H24G], for which the protein stability index was determined as 3.2.

Regarding RLLRFSSQIHNNGQSDFRPKNGRP [H24P], the protein stability index was 2.95.

In the case of RLLRFSSQIHNNGQSDFRPKNGRE [H24E], the protein stability index amounted to 3.12.

On to RLLRFSSQIHNNGQSDFRPKNGRV [H24V], for which the protein stability index is 2.52.

Consider RLLRFSSQIHNNGQSDFRPKNGRR [H24R], for which the protein stability index was found to be 2.74.

For the variant RLLRFSSQIHNNGQSDFRWKNGRH [P19W], the protein stability index is 2.76.

Regarding RLLRFSSQIHNNGQSDFRYKNGRH [P19Y], the protein stability index was determined as 2.37.

For RLLRFSSQIHNNGQSDFRVKNGRH [P19V], the protein stability index stood at 2.04.

On to RLLRFSSQIHNNGQSDFRPKNGKH [R23K], for which the protein stability index was 2.8.

For RLLRFSSQIHNNGQSDFRPKNGTH [R23T], the protein stability index was found to be 3.29.

In the case of RLLRFSSQIHNNGQSDFRPKNGDH [R23D], the protein stability index is 2.99.

For RLLRFSSQIHNNGQSDFRPKNGFH [R23F], the protein stability index stood at 1.84.

As for RLLRFSSQIHNNGQSDFRPKNGIH [R23I], the protein stability index worked out at 1.82.

With RLLRFSSQIHNNGQSDFRPKNGPH [R23P], the protein stability index was found to be 2.46.

Consider RLLRFSSQIHNNGQSDFRPKNGWH [R23W], for which the protein stability index worked out at 1.91.

On to RLLRFSSQIHNNGQSDFRPKNGNH [R23N], for which the protein stability index amounted to 3.03.

As to RLLRFSSQIHNNGQSDFRPKNGAH [R23A], the protein stability index worked out at 2.36.

With RLLRFSSQIHNNGQSDFRPKNGMH [R23M], the protein stability index is 1.84.

Take RLLRFSSQIHNNGQSDFRPKNGEH [R23E]: the protein stability index is 3.2.

Take RLLRFSSQIHNNGQSDFRPKNGYH [R23Y]: the protein stability index was determined as 2.61.

RLLRFSSQIHNNGQSDFRPKNGLH [R23L]: the protein stability index was 2.04.

Consider RLLRFSSQIHNNGQSDFRPKNGQH [R23Q], for which the protein stability index stood at 2.4.

RLLRFSSQIHNNGQSDFRPKNGSH [R23S]: the protein stability index worked out at 3.14.

RLLRFSSQIHNNGQSDFRPKNGHH [R23H]: the protein stability index came out at 2.36.

For RLLRFSSQIHNNGQSDFRPKNGVH [R23V], the protein stability index was 2.41.

With RLLRFSSQIHNNGQSDFRPKNGGH [R23G], the protein stability index was 2.71.

RLLRFSSQIHNNGQSDFRPKNGCH [R23C]: the protein stability index is 1.97.
